Experimental data published in patent US11421026B2, “Antibodies that bind human cannabinoid 1 (CB1) receptor” (BIRD ROCK BIO, Inc., priority 2015, dated 2022).

B1: 36E12B6C2: hybridoma-derived anti-CB1 mAb; HC variable SEQ ID NO: 18, LC variable SEQ ID NO: 22 (antibody, listed as Mus sp., V domains shown)
VH: QVQLQQSGAELVRPGSSVKISCKASGYEFSYYWMNWVKQRPGQGLQWIGQIYPGDGDTNYNGKFKGKATLTADKSSSTAYMHLTSLTSEDSAVYFCARSGGNPFAFWGQGTLVTVSA
VL: DIQMTQTSSSLSASLGDRVTFSCRASQDISNYLNWYQQKPDGTVKLLIYYTSRLHSGVTSRFRGSGSGTDYSLTISNLEQEDVATYFCQQGHTLPWSFGGGTKLEIK
B2: PA13R3-P1C4: phage-derived chimeric anti-CB1 IgG; HC variable SEQ ID NO: 2, LC variable SEQ ID NO: 6 (antibody, V domains shown)
VH: EVQLQQSGAELVRPGVSVKISCKASGYEFSYYWMNWVKQRPGQGLEWIGQIYPGDGETKYNGKFKGKATLTADKSSNTAYMQLSSLTSEDSAVYFCARSHGNYLPYWGQGTLVTVSA
VL: DIVLTQSPAIMSASLGERVTMTCTASSSVSSSYLHWYQQKPGSSPKLWIYSTSNLASGVPARFSGSGSGTSYSLTISSMEAEDAATYYCHQYHRSPPTFGAGTKLELK
modifications: PA13R3-P1C4 Heavy chain variable region; PA13R3-P1C4 Light chain variable region
B3: PA13R3-P1C4 Fab: Fab fragment of chimeric PA13R3-P1C4 (antibody, V domains shown)
VH: B2 VH
VL: B2 VL

Assays:
[1] = molecular target: T1, Native human CB1 TRex CHO A156 (Homo sapiens, UniProt P21554); assay: Flow cytometry (FACS) binding to native human CB1 cells
T1 construct: pcDNA4/TO native full length human CB1 receptor construct was transfected into tetracycline inducible system Trex-CHO cells; expressed in transfected cells
Protocol: (§1) TRex CHO parental cells, TRex CHO A56 over-expressed CB1 (CB1 T210A/fusion partner), and Native human CB1 TRex CHO A156 were harvested from flasks. 100 μl of 1×10^6 cells/ml of cells were incubated with primary antibody IgGs. Secondary Antibody PE conjugated anti-human and anti-mouse was diluted in 1:200 folds. Anti-Human Fab FITC was diluted in 1:32 folds. Cells were washed with 200 μl of FACS buffer twice and transferred to BD 5 ml Falcon tube and analyzed by flow cytometry. Binding of purified IgG was initially tested at concentrations of 30 nM and 300 nM.
(§2) To further assess TRex CHO parental cells, TRex CHO A56 overexpressed CB1, Native human CB1 TRex CHO A156, 5HT2B, Mouse CB1 and human CB2 were used to examine the specificity of IgG binding. 100 μl of 1×10^6 cells/ml of cells were incubated with primary antibody IgGs in 3-fold serial dilutions starting from 1 μM to 0.5 nM for 30 minutes on ice. After being washed with 200 μl of FACS buffer twice, cells were incubated with secondary antibody for 30 minutes on ice. Cells were washed with 200 μl of FACS buffer twice and transferred to BD Falcon 5 ml tube and analyzed by FACS.
(§3) For selected binders, full binding curves were generated on CB1 receptor by testing a range of concentrations. Three-fold serial dilutions from 1 μM to […] were prepared. Selectivity was determined by measuring binding to cells expressing 5HT2B or CB2, relative to binding to A156 (native human CB1 receptor expressing) or A56 (overexpressed—CB1 receptor with the T210A modification and ICL3 replacement with fusion partner) by flow cytometry. […]
(§4) The binding affinity, cross-reactivity and specificity of humanized P1C4 antibodies were determined by flow cytometry with TRex CHO parental cells, TRex CHO A56 overexpressed CB1 cells (T210A/fusion partner), native human CB1 TRex CHO A156 cells, Trex parental (no CB1) cells, mouse CB1 cells, and human CB2 stable cells. […] Cells were washed with 200 μl of FACS buffer twice and transferred to BD Falcon 5 ml tube and analyzed by flow cytometry (BD FACScalibur).

[2] = system: TRex CHO A56 over-expressed CB1 (CB1 T210A/fusion partner); assay: Flow cytometry (FACS) binding to over-expressed CB1 cells; design: species or system human
Protocol: as §1, §2, §3, §4

[3] = molecular target: A138 iCAPS (human CB1, ICL3 replaced with protein 1 sequence); assay: ELISA binding of IgG/Fab to CB1 iCAPS A138; details: IgG and Fab ELISA, Table 8
Protocol: Purified IgG was tested for binding to purified CB1 receptor (CB1 Conformation Antigen Presenting System (iCAPS)) by ELISA. Non-biotinylated antigens (e.g. empty iCAPS) were coated directly on Maxisorp plates. The primary antibodies were purified IgGs with 1:3 serial dilutions, incubated on the plate for 1 hour. After 3 rounds of washing with PBST, secondary antibodies HRP goat anti-mouse IgG (Abmart) or HRP goat anti-human IgG (Sigma), depending on the species of the IgGs were added and incubated for another hour. The plates were washed three times with PBST, then developed with TMB (Biopanda). HCl was added to the plates to stop the reaction. Absorbance at 450 nm was read on Emax precision microplate reader (Molecular Devices).
IgG and Fab molecules tested were 36E12B6C2 IgG, 36E12B6C2 Fab, PA13R3-P1C4 IgG, and PA13R3-P1C4 Fab, compared to negative control BRIL binder P1F7 IgG and P1F7 Fab. For IgG antibodies, the secondary antibody used to detect binding was anti-mouse IgG-HRP; for Fabs, the secondary antibody used to detect binding was anti-human IgG-HRP.

[4] = system: TRex CHO parental cells (no CB1); assay: Flow cytometry (FACS) binding to parental cells
Protocol: as §1, §2
The binding affinity, cross-reactivity and specificity of humanized P1C4 antibodies were determined by flow cytometry with TRex CHO parental cells, TRex CHO A56 overexpressed CB1 cells (T210A/fusion partner), native human CB1 TRex CHO A156 cells, Trex parental (no CB1) cells, mouse CB1 cells, and human CB2 stable cells. […] After being washed with 200 μl of FACS buffer twice, cells were incubated with PE conjugated anti-human secondary antibody (Southern Biotech) for 30 minutes on ice. Cells were washed with 200 μl of FACS buffer twice and transferred to BD Falcon 5 ml tube and analyzed by flow cytometry (BD FACScalibur).
The binding affinity of PA13R3-P1C4 humanized variants was determined by flow cytometry using TRex CHO cells stably transfected with the CB1. TRex CHO parental cells, and TRex-CHO cells stably transfected with tetracycline inducible human CB1, human CB2 or mouse CB1 expression constructs were harvested. To determine binding of test antibodies, one hundred microliters of 1×10^6 cells/mL of cells were incubated with test antibodies with a range of concentrations between 1 μM and 1.3 nM for 30 minutes on ice. Cells were then centrifuged at 4° C. at 1600 rpm for 3 minutes; supernatant was aspirated and cells were washed with 200 μL FACS buffer. The washing procedure was repeated twice. […] Cells were washed with 200 μL FACS buffer twice and analyzed by flow cytometry (Guava). […] The mean dissociation constant (KD) of PA13R3-P1C4 humanized variants was determined by averaging at least 4 different experiments using at least 2 different batches of protein (FIG. 20A-D and Table 16).

| Molecule | binding to A156 (in words) [1] | binding to A56 (in words) [2] | EC50 [3] | binding to parental TRex CHO (in words) [4] | Kd TRexCHO parental ([4]; Table 10) |
| --- | --- | --- | --- | --- | --- |
| B1 | bind to both A56 and A156 | bind to both A56 and A156 | 0.201 nM | not parental TRex CHO |  |
| B2 | bind to both A56 and A156 | bind to both A56 and A156 | 0.17 nM | not parental TRex CHO | No binding |
| B3 | bind to both A56 and A156 | bind to both A56 and A156 | 0.23 nM | not parental TRex CHO |  |
